Assay [1] addresses Zika virus (ZIKV) soluble E ectodomain (sE) (Zika virus). The assay can be described thus: SEC-MALS; pH 8.0; isolated proteins sampled individually; Superdex 200.
Assay [2] shares this target. The assay can be described thus: SEC-MALS. A general note: Size exclusion chromatography separates by hydrodynamic size, large species first.

Data on one substance can be found in article PMC10653854.

Turning to “Zika virus (ZIKV) soluble E ectodomain (sE) (domain or fragment)”, the stoichiometry N in assay [1] and in assay [2] was 2 each time.
